Laboratory results reported in paper PMC9482650, “Quantitative fragmentomics allow affinity mapping of interactomes” (Nature Communications, 2022).
Positions count from the first letter of the chain named.

What was measured:
Assay in all cases: holdup assay
Design in all cases: key: below the threshold = too weak to quantify, mostly under pKd 3.1 to 4
AHNAK1, Q09666 = target: AHNAK1, Q09666
APBA1_1, Q02410 = target: T1, APBA1_1, Q02410
T1 sequence (Q02410 651-752, limits assumed, looked up): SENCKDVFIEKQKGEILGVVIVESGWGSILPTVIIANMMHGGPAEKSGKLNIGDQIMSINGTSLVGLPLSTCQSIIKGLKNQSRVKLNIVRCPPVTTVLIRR

ARHGEF12, Q9NZN5-2 = target: ARHGEF12, Q9NZN5-2
ARHGEF12, Q9NZN5-2, sequence (Q9NZN5 other isoform, or with tags, fused parts or gaps): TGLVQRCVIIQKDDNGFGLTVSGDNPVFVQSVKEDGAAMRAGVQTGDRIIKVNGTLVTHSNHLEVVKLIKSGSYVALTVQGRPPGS

CASK, O14936 = target: CASK, O14936
CASK, O14936, sequence (O14936 487-570): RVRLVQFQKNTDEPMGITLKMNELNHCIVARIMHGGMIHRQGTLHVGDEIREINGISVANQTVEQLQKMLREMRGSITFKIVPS

DLG3_3, Q92796 = target: T2, DLG3_3, Q92796
T2 sequence (Q92796 374-475, limits assumed, looked up): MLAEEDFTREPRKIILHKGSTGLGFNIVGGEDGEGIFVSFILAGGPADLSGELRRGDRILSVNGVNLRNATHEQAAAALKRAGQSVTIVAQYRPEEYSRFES

GORASP1, Q9BQQ3 = target: GORASP1, Q9BQQ3
GORASP1, Q9BQQ3, sequence (Q9BQQ3 1-208): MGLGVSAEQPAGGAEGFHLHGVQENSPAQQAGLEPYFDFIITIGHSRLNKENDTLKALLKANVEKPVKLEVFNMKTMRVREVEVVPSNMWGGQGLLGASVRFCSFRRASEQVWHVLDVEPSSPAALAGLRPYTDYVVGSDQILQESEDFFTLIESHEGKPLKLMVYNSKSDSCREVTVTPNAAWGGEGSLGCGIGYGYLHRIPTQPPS

GRIP1_2, Q9Y3R0 = target: T3, GRIP1_2, Q9Y3R0
T3 sequence (Q9Y3R0 145-248, limits assumed, looked up): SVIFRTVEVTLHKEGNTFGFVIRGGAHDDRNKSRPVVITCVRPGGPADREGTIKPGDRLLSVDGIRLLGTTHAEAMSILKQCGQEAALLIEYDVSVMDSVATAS

GRIP1_7, Q9Y3R0 = target: T4, GRIP1_7, Q9Y3R0
T4 sequence (Q9Y3R0 999-1096, limits assumed, looked up): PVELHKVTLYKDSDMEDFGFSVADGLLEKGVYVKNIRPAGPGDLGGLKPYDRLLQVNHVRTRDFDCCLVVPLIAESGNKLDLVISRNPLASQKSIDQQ

HTRA2, O43464 = target: HTRA2, O43464
HTRA2, O43464, sequence (O43464 355-458): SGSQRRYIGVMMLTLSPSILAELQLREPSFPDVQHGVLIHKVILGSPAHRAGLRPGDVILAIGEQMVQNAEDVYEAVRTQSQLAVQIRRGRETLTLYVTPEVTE

Inadl_1, Q8NI35 = target: Inadl_1, Q8NI35
Inadl_1, Q8NI35, sequence (Q8NI35 113-229): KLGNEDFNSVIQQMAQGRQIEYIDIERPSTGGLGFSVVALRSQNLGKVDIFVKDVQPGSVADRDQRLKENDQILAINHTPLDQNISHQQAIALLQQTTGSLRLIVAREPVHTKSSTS

Inadl_8, Q8NI35 = target: Inadl_8, Q8NI35
Inadl_8, Q8NI35, sequence (Q8NI35 1425-1530): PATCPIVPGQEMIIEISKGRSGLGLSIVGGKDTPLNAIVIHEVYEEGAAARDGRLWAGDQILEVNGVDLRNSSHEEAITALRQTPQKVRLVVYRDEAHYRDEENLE

LIN7B, Q9HAP6 = target: T5, LIN7B, Q9HAP6
T5 sequence (Q9HAP6 88-185, limits assumed, looked up): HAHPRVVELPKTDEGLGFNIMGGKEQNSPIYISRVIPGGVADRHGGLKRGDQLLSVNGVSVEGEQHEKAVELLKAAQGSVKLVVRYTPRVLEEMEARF

LIN7C, Q9NUP9 = target: T6, LIN7C, Q9NUP9
T6 sequence (Q9NUP9 88-185, limits assumed, looked up): T5 sequence (Q9HAP6 88-185, limits assumed, looked up) with A2S, D13E, V35I, V40I, Q65H, S79K, R89K, A96S

LNX1_1, Q8TBB1 = target: LNX1_1, Q8TBB1
LNX1_1, Q8TBB1, sequence (Q8TBB1 261-371): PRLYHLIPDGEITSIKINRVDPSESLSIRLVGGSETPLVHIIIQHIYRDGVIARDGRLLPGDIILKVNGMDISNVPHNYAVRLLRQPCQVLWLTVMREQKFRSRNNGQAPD

MAGI2_3, Q86UL8 = target: MAGI2_3, Q86UL8
MAGI2_3, Q86UL8, sequence (Q86UL8 600-682): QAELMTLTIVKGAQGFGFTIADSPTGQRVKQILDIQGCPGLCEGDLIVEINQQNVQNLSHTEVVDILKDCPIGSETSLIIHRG

MAGI2_5, Q86UL8 = target: MAGI2_5, Q86UL8
MAGI2_5, Q86UL8, sequence (Q86UL8 915-1017): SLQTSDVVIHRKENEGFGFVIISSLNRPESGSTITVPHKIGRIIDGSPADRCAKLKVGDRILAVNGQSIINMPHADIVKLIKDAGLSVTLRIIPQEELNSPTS

MAGI3_2, Q5TCQ9 = target: MAGI3_2, Q5TCQ9
MAGI3_2, Q5TCQ9, sequence (Q5TCQ9 398-503): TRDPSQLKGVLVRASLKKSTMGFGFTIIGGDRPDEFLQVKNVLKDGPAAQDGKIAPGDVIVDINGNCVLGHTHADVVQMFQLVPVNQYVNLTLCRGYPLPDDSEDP

MAST1, Q9Y2H9 = target: MAST1, Q9Y2H9
MAST1, Q9Y2H9, sequence (Q9Y2H9 962-1065): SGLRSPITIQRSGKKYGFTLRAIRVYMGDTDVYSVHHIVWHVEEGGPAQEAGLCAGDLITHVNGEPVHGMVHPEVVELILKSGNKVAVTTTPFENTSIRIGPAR

MAST2, Q6P0Q8 = target: MAST2, Q6P0Q8
MAST2, Q6P0Q8, sequence (Q6P0Q8 1099-1202): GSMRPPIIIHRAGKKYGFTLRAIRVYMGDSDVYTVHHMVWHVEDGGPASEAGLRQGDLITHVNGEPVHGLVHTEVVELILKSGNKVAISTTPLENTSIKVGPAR

NHERF2_2, Q15599 = target: NHERF2_2, Q15599
NHERF2_2, Q15599, sequence (Q15599 142-238): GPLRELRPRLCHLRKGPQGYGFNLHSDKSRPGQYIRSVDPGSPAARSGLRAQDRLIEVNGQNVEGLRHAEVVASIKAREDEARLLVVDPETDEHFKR

NHERF4_1, Q86UT5-2 = target: NHERF4_1, Q86UT5-2
NHERF4_1, Q86UT5-2, sequence (Q86UT5 other isoform, or with tags, fused parts or gaps): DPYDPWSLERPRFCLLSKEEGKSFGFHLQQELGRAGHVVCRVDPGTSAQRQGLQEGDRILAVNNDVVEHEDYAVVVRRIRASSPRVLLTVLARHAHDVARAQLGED

PARD3_3, Q8TEW0 = target: PARD3_3, Q8TEW0
PARD3_3, Q8TEW0, sequence (Q8TEW0 582-685): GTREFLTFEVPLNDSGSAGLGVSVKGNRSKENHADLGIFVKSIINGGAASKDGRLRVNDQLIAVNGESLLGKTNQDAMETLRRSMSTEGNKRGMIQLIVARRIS

PDLIM1, O00151 = target: PDLIM1, O00151
PDLIM1, O00151, sequence (O00151 1-87): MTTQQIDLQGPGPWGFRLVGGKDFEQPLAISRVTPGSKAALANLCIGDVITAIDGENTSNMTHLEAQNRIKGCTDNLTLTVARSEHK

PTPN3, P26045 = target: PTPN3, P26045
PTPN3, P26045, sequence (P26045 505-587): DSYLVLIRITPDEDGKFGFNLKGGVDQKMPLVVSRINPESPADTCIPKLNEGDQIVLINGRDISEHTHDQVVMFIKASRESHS

SCRIB_1, Q14160 = target: SCRIB_1, Q14160
SCRIB_1, Q14160, sequence (Q14160 718-814): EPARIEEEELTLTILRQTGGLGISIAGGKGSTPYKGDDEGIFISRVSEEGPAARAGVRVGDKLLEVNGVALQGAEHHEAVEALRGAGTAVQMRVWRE

SCRIB_2, Q14160 = target: SCRIB_2, Q14160
SCRIB_2, Q14160, sequence (Q14160 857-960): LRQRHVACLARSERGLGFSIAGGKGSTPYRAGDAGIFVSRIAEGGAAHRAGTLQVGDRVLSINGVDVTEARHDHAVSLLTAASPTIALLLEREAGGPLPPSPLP

SCRIB_3, Q14160 = target: SCRIB_3, Q14160
SCRIB_3, Q14160, sequence (Q14160 999-1103): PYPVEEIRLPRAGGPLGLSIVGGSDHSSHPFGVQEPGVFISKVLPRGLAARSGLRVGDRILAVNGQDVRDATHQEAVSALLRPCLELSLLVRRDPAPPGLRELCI

SNTG2, Q9NY99 = target: T7, SNTG2, Q9NY99
T7 sequence (Q9NY99 68-166, limits assumed, looked up): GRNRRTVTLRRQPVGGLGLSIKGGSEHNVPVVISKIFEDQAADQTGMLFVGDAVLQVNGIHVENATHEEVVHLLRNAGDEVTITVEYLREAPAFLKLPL

SNX27, Q96L92 = target: SNX27, Q96L92
TJP1_2, Q07157 = target: TJP1_2, Q07157
TJP1_2, Q07157, sequence (Q07157 181-274): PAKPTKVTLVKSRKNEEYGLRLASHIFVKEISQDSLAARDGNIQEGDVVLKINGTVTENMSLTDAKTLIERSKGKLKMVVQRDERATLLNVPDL

TJP3_3, O95049 = target: T8, TJP3_3, O95049
T8 sequence (O95049 375-456, limits assumed, looked up): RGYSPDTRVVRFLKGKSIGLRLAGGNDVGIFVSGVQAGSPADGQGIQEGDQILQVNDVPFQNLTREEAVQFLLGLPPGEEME

[1] = plain residues with an end cap or a label only (N-terminal biotin on a linker: ttds)
[2] = plain residues with an end cap or a label only (N-terminal biotin on a linker: ado-ado)

AHNAK1, Q09666, sequence (Q09666 4-100): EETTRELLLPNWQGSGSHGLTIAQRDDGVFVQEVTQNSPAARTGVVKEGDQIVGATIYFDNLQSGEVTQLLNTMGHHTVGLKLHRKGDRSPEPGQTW

B1: ABRAXAS2, Q15018 (peptide)
chain: DPRNTQTSQI
pKd (AHNAK1, Q09666; [1]): 3.53 | pKd (APBA1_1, Q02410; [1]): below the threshold | pKd (ARHGEF12, Q9NZN5-2; [1]): 4.44 | pKd (CASK, O14936; [1]): 3.55 | pKd (DLG3_3, Q92796; [1]): 3.66 | pKd (GORASP1, Q9BQQ3; [1]): 3.56 | pKd (GRIP1_2, Q9Y3R0; [1]): 3.57 | pKd (GRIP1_7, Q9Y3R0; [1]): below the threshold | pKd (HTRA2, O43464; [1]): below the threshold | pKd (Inadl_1, Q8NI35; [1]): 3.72 | pKd (Inadl_8, Q8NI35; [1]): 3.54 | pKd (LIN7B, Q9HAP6; [1]): below the threshold | pKd (LIN7C, Q9NUP9; [1]): 3.66 | pKd (LNX1_1, Q8TBB1; [1]): below the threshold | pKd (MAGI2_3, Q86UL8; [1]): below the threshold | pKd (MAGI2_5, Q86UL8; [1]): below the threshold | pKd (MAGI3_2, Q5TCQ9; [1]): below the threshold | pKd (MAST1, Q9Y2H9; [1]): 4.32 | pKd (MAST2, Q6P0Q8; [1]): 4.55 | pKd (NHERF2_2, Q15599; [1]): 3.6 | pKd (NHERF4_1, Q86UT5-2; [1]): below the threshold | pKd (PARD3_3, Q8TEW0; [1]): 3.64 | pKd (PDLIM1, O00151; [1]): below the threshold | pKd (PTPN3, P26045; [1]): 3.77 | pKd (SCRIB_1, Q14160; [1]): 4.02 | pKd (SCRIB_2, Q14160; [1]): below the threshold | pKd (SCRIB_3, Q14160; [1]): 4.01 | pKd (SNTG2, Q9NY99; [1]): 3.7 | pKd (SNX27, Q96L92; [1]): 4.04 | pKd (TJP1_2, Q07157; [1]): below the threshold | pKd (TJP3_3, O95049; [1]): below the threshold

B2: AGMAT, Q9BSE5 (peptide)
chain: LCALPKVTTV
pKd (AHNAK1, Q09666; [1]): below the threshold | pKd (APBA1_1, Q02410; [1]): below the threshold | pKd (ARHGEF12, Q9NZN5-2; [1]): 4.67 | pKd (CASK, O14936; [1]): below the threshold | pKd (DLG3_3, Q92796; [1]): 4.47 | pKd (GORASP1, Q9BQQ3; [1]): 4.11 | pKd (GRIP1_2, Q9Y3R0; [1]): below the threshold | pKd (GRIP1_7, Q9Y3R0; [1]): below the threshold | pKd (HTRA2, O43464; [1]): 3.8 | pKd (Inadl_1, Q8NI35; [1]): 3.57 | pKd (Inadl_8, Q8NI35; [1]): 4.82 | pKd (LIN7B, Q9HAP6; [1]): 3.94 | pKd (LIN7C, Q9NUP9; [1]): 4.38 | pKd (LNX1_1, Q8TBB1; [1]): 3.98 | pKd (MAGI2_3, Q86UL8; [1]): 4.4 | pKd (MAGI2_5, Q86UL8; [1]): 3.63 | pKd (MAGI3_2, Q5TCQ9; [1]): 4.82 | pKd (MAST1, Q9Y2H9; [1]): 3.88 | pKd (MAST2, Q6P0Q8; [1]): 4.88 | pKd (NHERF2_2, Q15599; [1]): below the threshold | pKd (NHERF4_1, Q86UT5-2; [1]): below the threshold | pKd (PARD3_3, Q8TEW0; [1]): 3.62 | pKd (PDLIM1, O00151; [1]): below the threshold | pKd (PTPN3, P26045; [1]): 4.4 | pKd (SCRIB_1, Q14160; [1]): 4.39 | pKd (SCRIB_2, Q14160; [1]): below the threshold | pKd (SCRIB_3, Q14160; [1]): 4.24 | pKd (SNTG2, Q9NY99; [1]): 4.24 | pKd (SNX27, Q96L92; [1]): 4.43 | pKd (TJP1_2, Q07157; [1]): below the threshold | pKd (TJP3_3, O95049; [1]): below the threshold

B3: PRKCA, P17252 (peptide)
chain: FVHPILQSAV
pKd (AHNAK1, Q09666; [2]): below the threshold | pKd (APBA1_1, Q02410; [2]): below the threshold | pKd (ARHGEF12, Q9NZN5-2; [2]): 4.22 | pKd (CASK, O14936; [2]): below the threshold | pKd (DLG3_3, Q92796; [2]): 3.57 | pKd (GORASP1, Q9BQQ3; [2]): below the threshold | pKd (GRIP1_2, Q9Y3R0; [2]): below the threshold | pKd (GRIP1_7, Q9Y3R0; [2]): below the threshold | pKd (HTRA2, O43464; [2]): below the threshold | pKd (Inadl_1, Q8NI35; [2]): below the threshold | pKd (Inadl_8, Q8NI35; [2]): 4.71 | pKd (LIN7B, Q9HAP6; [2]): below the threshold | pKd (LIN7C, Q9NUP9; [2]): 3.52 | pKd (LNX1_1, Q8TBB1; [2]): 4.02 | pKd (MAGI2_3, Q86UL8; [2]): 3.83 | pKd (MAGI2_5, Q86UL8; [2]): 4.73 | pKd (MAGI3_2, Q5TCQ9; [2]): 4.32 | pKd (MAST1, Q9Y2H9; [2]): 4.23 | pKd (MAST2, Q6P0Q8; [2]): 5.35 | pKd (NHERF2_2, Q15599; [2]): below the threshold | pKd (NHERF4_1, Q86UT5-2; [2]): 3.78 | pKd (PARD3_3, Q8TEW0; [2]): below the threshold | pKd (PDLIM1, O00151; [2]): below the threshold | pKd (PTPN3, P26045; [2]): 4.59 | pKd (SCRIB_1, Q14160; [2]): 4.57 | pKd (SCRIB_2, Q14160; [2]): 4.29 | pKd (SCRIB_3, Q14160; [2]): 4.3 | pKd (SNTG2, Q9NY99; [2]): 3.64 | pKd (SNX27, Q96L92; [2]): 4.68 | pKd (TJP1_2, Q07157; [2]): below the threshold | pKd (TJP3_3, O95049; [2]): below the threshold

B4: SLC23A1, Q9UHI7 (peptide)
chain: TETASVCTKV
pKd (AHNAK1, Q09666; [2]): below the threshold | pKd (APBA1_1, Q02410; [2]): below the threshold | pKd (ARHGEF12, Q9NZN5-2; [2]): 3.88 | pKd (CASK, O14936; [2]): below the threshold | pKd (DLG3_3, Q92796; [2]): below the threshold | pKd (GORASP1, Q9BQQ3; [2]): 3.87 | pKd (GRIP1_2, Q9Y3R0; [2]): below the threshold | pKd (GRIP1_7, Q9Y3R0; [2]): below the threshold | pKd (HTRA2, O43464; [2]): below the threshold | pKd (Inadl_1, Q8NI35; [2]): below the threshold | pKd (Inadl_8, Q8NI35; [2]): 4.01 | pKd (LIN7B, Q9HAP6; [2]): below the threshold | pKd (LIN7C, Q9NUP9; [2]): 4.08 | pKd (LNX1_1, Q8TBB1; [2]): 3.73 | pKd (MAGI2_3, Q86UL8; [2]): 4.16 | pKd (MAGI2_5, Q86UL8; [2]): 4.46 | pKd (MAGI3_2, Q5TCQ9; [2]): 4.18 | pKd (MAST1, Q9Y2H9; [2]): 4.85 | pKd (MAST2, Q6P0Q8; [2]): 5.47 | pKd (NHERF2_2, Q15599; [2]): 4.16 | pKd (NHERF4_1, Q86UT5-2; [2]): 4.53 | pKd (PARD3_3, Q8TEW0; [2]): below the threshold | pKd (PDLIM1, O00151; [2]): below the threshold | pKd (PTPN3, P26045; [2]): 3.97 | pKd (SCRIB_1, Q14160; [2]): 3.99 | pKd (SCRIB_2, Q14160; [2]): 3.77 | pKd (SCRIB_3, Q14160; [2]): 3.59 | pKd (SNTG2, Q9NY99; [2]): 3.82 | pKd (SNX27, Q96L92; [2]): 4.85 | pKd (TJP1_2, Q07157; [2]): 3.5 | pKd (TJP3_3, O95049; [2]): below the threshold
